From patent CN114685664A (UNIV INNER MONGOLIA AGRI, dated 2022)

T1: 人CD20胞外区多肽 (human)
T1 construct: Synthetic 47-residue peptide of the extracellular region of human CD20 (Sangon); also called CD20多肽; CD20抗原
T1 peptide: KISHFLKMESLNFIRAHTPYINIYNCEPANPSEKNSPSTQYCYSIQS

T2: Raji细胞表面CD20蛋白 (human, UniProt P11836 1-297)
T2 construct: whole, on cells; Raji cells used as CD20-positive cells; also called Raji细胞表面CD20分子
T2 sequence (looked up): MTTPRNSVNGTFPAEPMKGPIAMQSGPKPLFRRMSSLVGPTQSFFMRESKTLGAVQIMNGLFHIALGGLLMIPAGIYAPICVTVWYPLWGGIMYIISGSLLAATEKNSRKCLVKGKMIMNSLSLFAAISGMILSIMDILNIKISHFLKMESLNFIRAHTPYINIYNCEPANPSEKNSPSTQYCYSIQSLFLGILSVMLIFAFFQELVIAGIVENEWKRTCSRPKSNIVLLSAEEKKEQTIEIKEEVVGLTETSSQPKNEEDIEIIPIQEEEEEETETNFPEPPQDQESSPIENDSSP


Experiments:
人CD20胞外区多肽 [1] = molecular target: T1, 人CD20胞外区多肽; experiment: phage ELISA, CD20 extracellular peptide coated at 2.5 μg/mL, OD450
Raji细胞表面CD20蛋白 [2] = molecular target: T2, Raji细胞表面CD20蛋白; experiment: immunofluorescence on fixed Raji cells, sdAb 10 μg/mL, fluorescent anti-His detection
Raji细胞表面CD20蛋白 [3] = molecular target: T2, Raji细胞表面CD20蛋白; experiment: flow cytometry, FITC-labelled BsNb 100 μg/mL on Raji cells
人CD20胞外区多肽 [4] = molecular target: T1, 人CD20胞外区多肽; experiment: ELISA, CD20 extracellular peptide coated at 2.5 μg/mL, BsNb 30 to 5 μg/mL, HRP anti-His detection, OD450

| Binder | binding result (人CD20胞外区多肽 [1]) | binding result (Raji细胞表面CD20蛋白 [2]) | binding result (Raji细胞表面CD20蛋白 [3]) | binding result (人CD20胞外区多肽 [4]) |
| --- | --- | --- | --- | --- |
| sdAb11 (抗CD20单域重链抗体) (VHH, Expressed in E. coli BL21(DE3) from VHH-pET-25b-SBP and purified on Ni-NTA; also called CD20单域抗体; Anti-CD20 sdAb; not shown: tags from vector pET-25b-SBP (His tag detected with anti-His antibody; SBP)) VHH: DVQLVESGGGLVQPGGSLRLSCTAPGFTSNNCGMDWWRQAAGKQREWVSSIATDGSTSYADSVKGRFTISKDKAKDTVFLQMNSLKPEDTAMYNCAMRRWGWGCLGRLWQSDFGYWGQGTQVTVSS | binds | binds |  |  |
| Anti-CD20/CD3 BsNb (bispecific antibody, Single chain: anti-CD20 sdAb, linker, anti-CD3 sdAb; also called CD20 sdAb-linker-CD3 sdAb; 抗CD20和CD3双特异性单域抗体) EVQLLEEVQLVESGGGLVQPGGSLRLSCAASGFTFDDYGMSWVRQAPGKWLEWVSDISWNGGSTYYADSVKGRFTISRDNAENTLYLQMNSLKPDDTAVYYCAKMGEGGWGANDYWGQGTQVTVSSSGGGGSGGGGSGGGGSMAQVQLQMADVQLVESGGGLVQPGGSLRLSCTAPGFTSNNCGMDWWRQAAGKQREWVSSIATDGSTSYADSVKGRFTISKDKAKDTVFLQMNSLKPEDTAMYNCAMRRWGWGCLGRLWQSDFGYWGQGTQVTVSS |  |  | binds | binds |
